# Source: the DeepSol protein solubility set
# Experiment: soluble on expression in E. coli; label from the status in PepcDB or PDB records
row,Sequence,soluble on expression in E. coli
1,SNAMSKQLLALNIDGALLRSNGKIHQATKDAIEYVKKKGIYVTLVTNRHFRSAQKIAKSLKLDAKLITHSGAYIAEKIDAPFFEKRISDDHTFNIVQVLESYQCNIRLLHEKYSIGNKKKVNSNLLGKALIHPSDPIFYPVQFVESLSDLLMDEPVSAPVIEVYTEHDIQHDITETITKAFPAVDVIRVNDEKLNIVPKGVSKEAGLALVASELGLSMDDVVAIGHQYDDLPMIELAGLGVAMGNAVPEIKRKADWVTRSNDEQGVAYMMKEYFRMQQRKGFLDKFHMKR,soluble
2,MWGQTNMADKKSPLIAVSVGEASGDLLGAHLIRAIRKRCPQARFTGIGGELMKAEGFESLYDQERLAVRGFVEVVRRLPEILRIRRGLVRDLLSLKPDVFVGIDAPDFNLGVAEKLKRSGIPTVHYVSPSVWAWRRERVGKIVHQVNRVLCLFPMEPQLYLDAGGRAEFVGHPMAQLMPLEDDRETARQTLGVDAGIPVFALLPGSRVSEIDYMAPVFFQTALLLLERYPAARFLLPAATEATKRRLAEVLQRPEFAGLPLTVIDRQSETVCRAADAVLVTSGTATLEVALCKRPMVISYKISPLTYAYVKRKIKVPHVGLPNILLGKEAVPELLQSEAKPEKLAAALADWYEHPDKVAALQQDFRALHLLLKKDTADLAARAVLEEAGC,not soluble
3,MLNNDVLRSLRYLLDLPDAHLAELAARFGEQVEADLLEAYLKKEDEDGFQACPDRYLARCLDGLIIQRRGRDESRPLPPLELPLSNNMILKKLRVAFELKEEDLHAILDSVDFPVSKPELSALFRKPGHSNYRTCGDQLLRNFLKGLTLRVRG,not soluble
4,MAHHHHHHMRPTFPALGSRAKGYENRVMVYAHRRHRAWYLPPKLAHARSPLANKSPDEYGNTWDPRTGVEWYHRLRRRGAYRHWPWARWNDDPVRQHQELSCRRTFSAAVTGANEGVPLWNYYAEVGQEYGLPSHFPLSFMAPFIHQYTSRAWSRKEIERHLKVVEERTGLRTIQQACDATSELLEWGEEEMGVVPHGLLQHVVMLAEDIVLQNKKKAYRKAAHERGILRTTTMERYYALPHLRTGPPMPTTLEQPSGEFPWGKFSTMVGGTRIHPLYRPDGFFKDNMYPA,not soluble
5,MGKKVVVIGAGPGGIMAAGKAAERGHNVTLFEKNDRIGKKILISGKGRCNITNNTDIEGLIENIPGNGNFLYSAFYTFSNHDLIEFFEQYGLKTKVERGGRVFPVSDDAKDVNNALLKFLNKAKVNLRLNSPVQEIKAKNNTVTGVVLKDGTEVPCDAVVLATGGASYPGTGSTGDGYVMAKKLGHTIVDLKPSLVPLLAEEEWVKELQGLSLKNVSITILSKAGKKIYTDFGEMLFTHFGVSGPIILSASRHILDYDYKNVKLVIDLKPALSEEKLDERILRDFEKYSRKQYKNSLDDLLPKKMIPVIVKLSGIEPEKFVNQIKKEERRALVRLLKNLTLNINGSRPIKEAIVTAGGVSTDEINPSTMESKLVKGLYFAGEIIDVDGYTGGFNLTIAFSTGYLAGVSC,soluble
6,MSERVKVAILGSGNIGTDLMYKLLKNPGHMELVAVVGIDPKSEGLARARALGLEASHEGIAYILERPEIKIVFDATSAKAHVRHAKLLREAGKIAIDLTPAARGPYVVPPVNLKEHLDKDNVNLITCGGQATIPLVYAVHRVAPVLYAEMVSTVASRSAGPGTRQNIDEFTFTTARGLEAIGGAKKGKAIIILNPAEPPILMTNTVRCIPEDEGFDREAVVASVRAMEREVQAYVPGYRLKADPVFERLPTPWGERTVVSMLLEVEGAGDYLPKYAGNLDIMTASARRVGEVFAQHLLGKPVEEVVA,soluble
7,MGSDKIHHHHHHAQVNDTIQRTTGNDLYQGITRKLPYWQMVTPHGVQVTFAKTVHIIFPSAVRYVDLGSNWIIAGKADGAENVIRVKAATEGFPGETNFSVICEDGSFYSFNARYAHEPEMLNIEMKDFLENGDTTDFSHTRMNIHFRELAGESPLLVKLIMQSIYKEDRREIRHLGCKRFGVQFLLKSVHSHNGLFYFHTETRNRSNVAFRTDFIRFKIVDKKVPKRTAIQERVIDPVRSYNEVLVTEGKSDVRTVYAVPQFTIPDDKLLVIELFEKDGGRHQTIRVENADLVAARQINELKIK,not soluble
8,GNSPQEEVELKKLKHLEKSVEKIADQLEELNKELTGIQQGFLPKDLQAEALCKLDRRVKATIEQFMKILEEIDTLILPENFKDSRLKRKGLVKKVQAFLAECDTVEQNICQETE,soluble
9,MTKEERISRATELFKSGYNCSQSVVAAFADMYGFTEEQALRMAASFGGGIGRMRETCGAACGMFLLAGLEKGAIDGADREGKAANYALVQELAAEFKKRNGSLNCGELLGLKKKAPVSSEPEARTEQYYAKRPCSKMVEEAARIWAEYLEKEKK,not soluble
10,THANIQGLVKHVDYMAFSDQDTFLSVSNYAFDAFTFDFYASMLNAARLIIADEHTLLDTERLTDLILQENVNVMFATTALFNLLTDAGEDWMKGLRCILFGGERASVPHVRKALRIMGPGKLINCYGPTEGTVFATAHVVHDLPDSISSLPIGKPISN,not soluble
11,MKRYSTKHFKRILIANNVNIDIDLKTGIVAKNMAKKEKIEQVISMGGIMWEGLNSSLIKVDEALLKQQI,soluble
12,FVEAIHAAEERVWITSPYFIPDEAVTAALTLAVLRGVDVRLLLPSRPDHYVVYAASSLYAFDAVRAGVRVFRYEPGFLHQKVVLVDNDITAIGSANLDNRSFRLNFELMLLTVDSDFSSQVESMLTADFNLAREISVQ,not soluble
13,GMLSNLESSIQSPKSGEYQCLAALNLYDSPECTSLATQAAVGRHLQVTSNQQGAAVEVCLCEDDYPGWLSLGDLGLLKPATVLYQAKSFSESEIKKLLPGAIAFTQKAMQQSNYYLWGGTVGPNYDCSGLMQAAFVSVGIWLPRDAYQQEAFTQAITIDELAPGDLVFFGTPVKATHVGLYLGDGCYIHSSGKAQGRDGIGIDILSEQGDVVSRSYYQQLRGAGRVVKSYKPQRH,soluble
14,MSLEIADLKVHFDIKEGKQWFWQPPKTLKAVDGVTLRLYEGETLGVVGESGCGKSTFARAIIGLVKATDGKVAWLGKDLLGMKADEWREVRSDIQMIFQDPLASLNPRMTIGEIIAEPLRTYHPKLSRQDVRDRVKAMMLKVGLLPNLINRYPHEFSGGQCQRIGIARALILEPKLIICDEPVSALDVSIQAQVVNLLQQLQREMGLSLIFIAHDLAVVKHISDRVLVMYLGHAVELGTYDEVYHNPLHPYTKALMLAVPIPDPDLERNKKIQLLEGELPSPINPPSEGHHHHHH,soluble
15,MGSDKIHHHHHHMALPTQLVYPGFEKIPRFWDNEQQSQVARVDPGEYYYSCQDEFIYTRLGSCVAACIWDPLMGIGGLNHFLLPEKVLHEDWHQLTSYSCRYGNWAMEQLINGILSAGGLKSRLKAKIFGGATLGRISVLNVGQSNIAFVREYLALEGIPVMSEDLGGPWPRKVLFHPQSGRVRLKRLEMTGMAQIEREEEAYLNDVAEHAKVPEPGSIELF,not soluble
16,MGSDKIHHHHHHMTEIYEKYAHAAERMLHFVETRTTDQASSTMRVPVADYLDQGRFDLEIDRIFKRLPLMLALTIELPEVNDYKAMDVMGLPVLITRGRDGKARAFLNVCKHRAMHLAKEGKGNCKAFACQYHGWTYANDGKLMGIAEASTFGDVDRSTLNMTELPCDEAAGLIFVILTPGLPINAVEWMGGMYEDFAALKLETWYYHKSKAMKGANWKVAYDGYLEGYHFQAAHTNTVATRSPSNRASYEGFGPHIRLGFPQNTITRLHELPRDEWGRQENKGYDFIRMLFPNMSFFLAPEMGQLAQLFPGPQANQNTTVMNYIFPVKPETEEGLAALDQMCDFFFDVVEEEDYFLGLKVQNGLESGAMTHQTFGRNEPGNQFFHKWVAYYLDESGQTPMPVMKE,not soluble
17,MIGMVNVQCDTPLDYYATAPNLLSRDTSVRKRGDSESANASRHNSTKRTPSWRPLFTGQGKKKSSKPKYLQDGRKMTEDGHDEPNKLWEELFLRSFAHKIEQEISSPSPLEAHKNLNSELSKLNIQDKSFYRSTYSLVSPTRIENTDFEELERIENQEKTQDDSKPNRSNSSTERPSSQICSVFLPFIKTIKGNKKKNSITSVNNNTKNS,not soluble
18,MGSDKIHHHHHHMTHQAATVHALNPATPEGLEVRLARTRAEVAAAQRIRYRVFYEEMGAKPTVAMQTLEQDFDDYDKHCDHLVVLADGDVVGTYRLIRRSAAQAVGRFYTAGEFDISPFLAVEGEILELGRSCVDARWRHRGTLQALWQGLAGYMVENDIRLLFGCGSLPGTDPEILAPQLAYLRDNHMAPPALRGRALDSAEKVDFAGIDVAWDARRVLASLPPLLKGYLRLGGVIGDGAVIDRPFNTTDVLVVVNAADIAGRYVKRFSA,not soluble
19,MTKSKIIEIGPLVPAFEEEKIVILFGPTATNELREISVIHEFEAAPQSALSKGNTLQIGDQVYIIEEVGTEANKNLEELGHISIYFRSGQNEVLPGAIVVSPEVFPTLAIGDTIQ,not soluble
20,RWYQRYLNPDRRHLAIDPYICGTVLTYSSDAPIGDSAPTTSCYMTGMPSNTGFVSTYPVSSGDADLIPVDKARAYSPLATFLEAAKIMKGKKTGLVVTCHFPHATPADCSAHSYSRKKYDWIAAQMVHQNLDVVLGGGTHYLHPELQSVLNSRGYGLFLDDLNGMRTYAGDRMWALFGKREMPYDLDRDTTQIPSLEEMTRLAIEKLNRSEEGFFLMVEGSKVDWAAHANDPVGIATEYLAFDRACAVAFDFARRDGQTAVIIVPDHGNSGVSIGKQSVKDYDKRSAKDLFDQLCRFRLTADGLAGRLADTPADKVQGLVSNICGFELDAKELEALYNCPDYNHSPIPKEQRRQTEESLYSGSLSTFIASLYTKHTSIGFTTHGHTAEEVLLAAYHPQDTRPMGMVINYELNDYLCRLFELGSQLPVLTDKIFAPHTEVFQGMSYSIKDGKKEGELPVLEVKKGSHRLLASPFSNTVIFNKKAIDLSSVVVYVDKTKTFYLPRELRSLFGE,not soluble
21,MILTPPDTPFFLRNGNADTIAAKFLQRPAPAYRRELLPDSTGKTKVAYDFSDGISPDAPLVVLFHGLEGSSRSHYAVELMLAVRDRGWHGVVVHFRSCGGIANTAPVFYHLGDTAEIAFTLDTFAARYREIYAVGVSLGGNALAKYLGEQGKKALPQAAAVISAPVDAEAAGRRFDSGITRLLYTRYFLRTLIPKAKSLQGFQTAFAAGCKTLGEFDDRFTAPLHGFADRHDYYRQTSCKPLLKHVAKPLLLLNAVNDPFLPPEALPRADEVSEAVTLFQPAYGGHVGFVSSTGGRLHLQWLPQTVLSYFDSFRTNRR,not soluble
22,MSKTAIIFPGQGAQKVGMAQDLFNNNDQATEILTSAANTLDFDILETMFTDEEGKLGETENTQPALLTHSSALLAALKNLNPDFTMGHSLGEYSSLVAADVLSFEDAVKIVRKRGQLMAQAFPTGVGSMAAVLGLDFDKVDEICKSLSSDDKIIEPANINCPGQIVVSGHKALIDELVEKGKSLGAKRVMPLAVSGPFHSSLMKVIEEDFSSYINQFEWRDAKFPVVQNVNAQGETDKEVIKSNMVKQLYSPVQFINSTEWLIDQGVDHFIEIGPGKVLSGLIKKINRDVKLTSIQTLEDVKGWNEND,not soluble
23,MELRHIRYFLAVAEERHFTRAATKLGIGQPPLSQQIKDLERELGAQLFRRVPHGAELTEAGKAFYDVVKGMPATATRAVLAAQRVARGESGVLRVGFTASAAFNSVVPGAIRTFKRAYPDVRLQLEEGNTTQLADELNEGSLDVAFLRPGFTGNERFQLRLLSEEPMVIVLAETHPAAACKQIALSILKDEFFLLFPREIGLSLYDAVIKACGKAGFEPKIGQLVPQISSVINLVSAEMGVSMVPDSMRQVNVKGVVYRPVADQMPVAKLALAYRRGDTSPTLRNFILKVTG,not soluble
24,MLIRSETPADQRAIFDVTQAAFRGHPHSEQTEAYIVQALRAAGALTLSLVAELDARVVGHAAFSPVQISDGSPSWFGLGPVSVDPAHQGRGIGTALIEHGLARLQARGAAGCVLVGEPAYYGRFGFRPEPGLVLPDMPPTHFLALTFGAPARGTVTYHPGFAARDA,not soluble
